According to paper PMC11772321:

Target: T1, His-OsNAC2 (Oryza sativa, UniProt Q7XUV6 1-343)
T1 sequence: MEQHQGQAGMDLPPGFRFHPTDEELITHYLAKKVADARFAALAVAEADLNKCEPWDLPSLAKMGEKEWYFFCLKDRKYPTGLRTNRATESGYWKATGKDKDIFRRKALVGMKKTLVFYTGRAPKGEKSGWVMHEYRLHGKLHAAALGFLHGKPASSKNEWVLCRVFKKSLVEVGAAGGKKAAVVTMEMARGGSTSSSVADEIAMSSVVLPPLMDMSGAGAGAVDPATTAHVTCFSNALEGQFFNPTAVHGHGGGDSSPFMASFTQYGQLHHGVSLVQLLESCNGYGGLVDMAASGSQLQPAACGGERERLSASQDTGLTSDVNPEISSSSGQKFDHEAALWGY
Assay: EMSA

B1: probe-OsNAC2-59 (MITE in OsSCE1a promoter) (dsDNA)
DNA 1: TCCTTTGAGTCTATCTCTCTCATCCAATTCTTGTGTTTTTCCTGTGGTTCAATCAAACG
DNA 2: CGTTTGATTGAACCACAGGAAAAACACAAGAATTGGATGAGAGAGATAGACTCAAAGGA
B1: binds.
